Like-named read-outs stand apart in the source and are kept apart here.
Tests used:
[1] = molecular target: T1, wild type full-length cynomolgus monkey TIGIT expressed on CHO cells (cynomolgus monkey, UniProt A0A7N9I9V4 89-312); assay: flow cytometry, blocking of human CD155-Fc-PE binding to CHO cells expressing cynomolgus TIGIT
T1 construct: whole, on cells; also called cynomolgus TIGIT-CHO cells

[2] = molecular target: T1, wild type full-length cynomolgus monkey …; assay: flow cytometry on CHO cells expressing cynomolgus TIGIT, PE anti-human IgG Fc detection
[3] = molecular target: T2, wild type full-length human TIGIT expressed on cells (human, UniProt Q495A1 22-244); assay: flow cytometry, blocking of human CD155-Fc-PE binding to CHO cells expressing human TIGIT
T2 construct: whole, on cells; also called human TIGIT-CHO; human TIGIT CHO cells
T2 sequence (looked up): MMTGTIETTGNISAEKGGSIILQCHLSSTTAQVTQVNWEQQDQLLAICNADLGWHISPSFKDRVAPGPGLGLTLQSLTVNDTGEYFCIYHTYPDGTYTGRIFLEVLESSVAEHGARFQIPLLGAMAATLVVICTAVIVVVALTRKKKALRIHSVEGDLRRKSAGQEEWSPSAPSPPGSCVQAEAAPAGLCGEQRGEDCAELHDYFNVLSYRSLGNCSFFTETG
Protocol: (§1) A 4× concentrated intermediate stock of each antibody was prepared in a microplate. Antibodies were serially diluted 1-to-4 in FACS buffer. […] Lastly, 25 μL of human TIGIT-CHO cells, prepared as described above, were added to each well. After a 30-minute incubation on ice, the cells were washed twice with cold FACS Buffer, and the cells were analyzed by flow cytometry (BD LSR Fortessa Flow Cytometer). The data were analyzed using the FlowJo software by sequentially gating on the FSC-A vs. SSC-A and SSC-H vs. SSC-A. Mean fluorescence intensity (MFI) values for PE were calculated, and the data were plotted by GraphPad Prism software and analyzed as described above.

[4] = molecular target: T1, wild type full-length cynomolgus monkey …; assay: flow cytometry, blocking of human CD155-Fc-PE binding to CHO cells expressing cynomolgus TIGIT; remark: listed apart in the source
Protocol: as §1, with “multispecific molecule” for “antibody”, “cynomolgus” for “human”

[5] = molecular target: T1, wild type full-length cynomolgus monkey …; assay: flow cytometry on CHO cells expressing cynomolgus TIGIT, PE anti-human IgG Fc detection; remark: listed apart in the source
[6] = molecular target: T3, full-length ECD of human TIGIT (His-tagged) (human); assay: SPR Biacore T200, Protein A capture, 1:1 model, experiment #1
T3 construct: also called His-tagged human TIGIT; human TIGIT extracellular domain
T3 chain: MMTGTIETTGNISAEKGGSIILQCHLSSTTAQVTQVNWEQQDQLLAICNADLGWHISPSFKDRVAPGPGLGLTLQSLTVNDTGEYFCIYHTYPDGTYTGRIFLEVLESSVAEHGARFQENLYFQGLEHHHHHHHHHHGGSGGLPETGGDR
Protocol: (§2) Briefly, surface plasmon resonance experiments were performed using a Biacore T200 instrument, and the association rate (kₐ), dissociation rate (kd), and dissociation constant (KD) were calculated from each experiment using a 1:1 binding model with Biacore T200 Evaluation Software.
(§3) Antibodies were captured using a 30-sec injection at a flow rate of 10 μl/min to reach about 500 resonance units (RUs). […] The sensor chip was regenerated between cycles with two 30-sec injections of 10 mM glycine, pH 1.5. Sensorgrams were evaluated and fit to a simple Langmuir 1:1 interaction model using the global data analysis option of BIAevaluation 3.0 software. Data quality was verified by visually inspecting deviations and curve fitting, and by evaluating the parameters of Rₘₐₓ, Chi2, and Tc.

[7] = molecular target: T4, full-length ECD of cynomolgus monkey TIGIT (His-tagged) (cynomolgus monkey); assay: as above
T4 construct: also called His-tagged cynomolgus monkey TIGIT; cyno TIGIT extracellular domain
Protocol: as §2, §3

[8] = molecular target: T2, wild type full-length human TIGIT …; assay: flow cytometry on CHO cells expressing human TIGIT, PE anti-human IgG Fc detection
Protocol: For the antibody binding assay, a frozen aliquot of human TIGIT-CHO cells was thawed at 37° C. and then transferred to a tube containing DPBS supplemented with 0.5% Bovine Serum Albumin and 0.05% Sodium Azide (FACS Buffer). Cells were centrifuged at 300 g for five minutes. The supernatant was discarded, and cells resuspended in FACS buffer were seeded in a 96-well U-bottom tissue culture plate at a density of 2×10⁵ cells per well in 50 μL. In a separate microplate, a 2× concentrated intermediate stock of each antibody was prepared. Antibodies were serially diluted 1-to-4 in FACS buffer. A total of 11 working dilutions ranging from 60 μg/mL to 0.000057 μg/mL were prepared. Fifty microlitres of each dilution were then transferred to the microplate containing human TIGIT-CHO cells. The cells were then incubated for 45 minutes at 4° C. […] After a 30-minute incubation on ice, the cells were washed twice with cold FACS Buffer, and the cells were analyzed by flow cytometry (BD LSR Fortessa Flow Cytometer). The data were analyzed using the FlowJo software by sequentially gating the FSC-A vs. SSC-A, and SSC-H vs. SSC-A. Mean fluorescence intensity (MFI) values for PE were calculated, and the data were plotted by GraphPad Prism software.

T1 sequence (A0A7N9I9V4 entry or part of it): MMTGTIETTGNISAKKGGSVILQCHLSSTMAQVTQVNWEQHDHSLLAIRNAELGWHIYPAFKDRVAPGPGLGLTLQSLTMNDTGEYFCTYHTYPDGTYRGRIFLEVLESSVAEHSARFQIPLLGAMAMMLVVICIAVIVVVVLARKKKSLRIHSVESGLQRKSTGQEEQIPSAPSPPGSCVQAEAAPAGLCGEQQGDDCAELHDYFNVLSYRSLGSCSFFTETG

B1: anti-TIGIT×CD96 multispecific molecule BA123 (bispecific antibody, human IgG1, kappa, lambda)
heavy 1: QVQLVQSGAEVKKPGASVKVSCKASGYTFTSYGISWVRQAPGQGLEWMGWISAYNANTNYAQKLQGRVTMTTDTSTSTAYMELRSLRSDDTAVYYCARSAGVLGGMDVWGRGTLVTVSSASTKGPSVFPLAPSSKSTSGGTAALGCLVKDYFPEPVTVSWNSGALTSGVHTFPAVLQSSGLYSLSSVVTVPSSSLGTQTYICNVNHKPSNTKVDKRVEPKSCDKTHTCPPCPAPELLGGPDVFLFPPKPKDTLMISRTPEVTCVVVDVSHEDPEVKFNWYVDGVEVHNAKTKPREEQYNSTYRVVSVLTVLHQDWLNGKEYKCKVSNKALPAPIEKTISKAKGQPREPQVYTLPPSREEMTKNQVSLSCAVKGFYPSDIAVEWESNGQPENNYKTTPPVLDSDGSFFLVSKLTVDKSRWQQGNVFSCSVMHEALHNHYTQKSLSLSPG
light 1: not shown
heavy 2: EVQLVQSGAEVKKPGSSVKVSCKASGYTFASYGISWVRQAPGQGLEWMGGITPFFNRVDVAEKFQGRVTITADKSTSTAYIELSSLRSEDTAVYYCARDLRRGGVGDAFDIWGRGTLVTVSSASTKGPSVFPLAPSSKSTSGGTAALGCLVKDYFPEPVTVSWNSGALTSGVHTFPAVLQSSGLYSLSSVVTVPSSSLGTQTYICNVNHKPSNTKVDKRVEPKSCDKTHTCPPCPAPELLGGPDVFLFPPKPKDTLMISRTPEVTCVVVDVSHEDPEVKFNWYVDGVEVHNAKTKPREEQYNSTYRVVSVLTVLHQDWLNGKEYKCKVSNKALPLPEEKTISKAKGQPREPQVYTLPPSREEMTKNQVSLWCLVKGFYPSDIAVEWESNGQPENNYKTTPPVLDSDGSFFLYSKLTVDKSRWQQGNVFSCSVMHEALHNHYTQKSLSLSPG
light 2: QSALTQPRSVSGSPGQSVTISCTGTSPDVGSHAYRSWYQQHPGKAPKLMIYEVSYRPSGVSNRFSGSKSGNTASLTISGLQAEDEADYYCSSYPPSSATVFGAGTKLTVLGQPKAAPSVTLFPPSSEELQANKATLVCLISDFYPGAVTVAWKADSSPVKAGVETTTPSKQSNNKYAASSYLSLTPEQWKSHRSYSCQVTHEGSTVEKTVAPTEC
notes: copies: 1 + 1 + 1 + 1
IC50 (read off the curve) [1]: ~2 µg/mL
EC50 (read off the curve) [2]: ~0.2 µg/mL

B2: anti-TIGIT monospecific antibody BA148 (antibody, human IgG1, lambda)
heavy: EVQLVQSGAEVKKPGSSVKVSCKASGYTFASYGISWVRQAPGQGLEWMGGITPFFNRVDVAEKFQGRVTITADKSTSTAYIELSSLRSEDTAVYYCARDLRRGGVGDAFDIWGRGTLVTVSSASTKGPSVFPLAPSSKSTSGGTAALGCLVKDYFPEPVTVSWNSGALTSGVHTFPAVLQSSGLYSLSSVVTVPSSSLGTQTYICNVNHKPSNTKVDKRVEPKSCDKTHTCPPCPAPELLGGPDVFLFPPKPKDTLMISRTPEVTCVVVDVSHEDPEVKFNWYVDGVEVHNAKTKPREEQYNSTYRVVSVLTVLHQDWLNGKEYKCKVSNKALPLPEEKTISKAKGQPREPQVYTLPPSREEMTKNQVSLTCLVKGFYPSDIAVEWESNGQPENNYKTTPPVLDSDGSFFLYSKLTVDKSRWQQGNVFSCSVMHEALHNHYTQKSLSLSPGK
light: B1 light 2
notes: IgG1; also called anti-TIGIT IgG1 antibody BA148
IC50 (read off the curve) [3]: ~0.01 µg/mL
IC50 (read off the curve) [4]: ~0.2 µg/mL
EC50 (read off the curve) [5]: ~0.04 µg/mL
Kd [6]: 0.535 nM
koff [6]: 0.000413 s⁻¹
kon [6]: 773000 M⁻¹ s⁻¹
Kd [7]: 3.8 nM
koff [7]: 0.00127 s⁻¹
kon [7]: 334000 M⁻¹ s⁻¹

B3: anti-TIGIT×CD96 multispecific molecule BA127 (bispecific antibody, human IgG1, kappa, lambda)
heavy 1: QVQLVQSGAEVKKPGASVKVSCKASGYTFTTYALHWVRQAPGQRLEWMGWINTGSGDTKYSQKFQGRVTITRDTSASTAYMELSSLRSEDTAVYYCARSLGVYYGMDVWGQGTLVTVSSASTKGPSVFPLAPSSKSTSGGTAALGCLVKDYFPEPVTVSWNSGALTSGVHTFPAVLQSSGLYSLSSVVTVPSSSLGTQTYICNVNHKPSNTKVDKRVEPKSCDKTHTCPPCPAPELLGGPDVFLFPPKPKDTLMISRTPEVTCVVVDVSHEDPEVKFNWYVDGVEVHNAKTKPREEQYNSTYRVVSVLTVLHQDWLNGKEYKCKVSNKALPAPIEKTISKAKGQPREPQVYTLPPSREEMTKNQVSLSCAVKGFYPSDIAVEWESNGQPENNYKTTPPVLDSDGSFFLVSKLTVDKSRWQQGNVFSCSVMHEALHNHYTQKSLSLSPG
light 1: not shown
heavy 2: B1 heavy 2
light 2: B1 light 2
notes: Anti-CD96 arm = BA139, anti-TIGIT arm = BA150; copies: 1 + 1 + 1 + 1
EC50 (read off the curve) [8]: ~0.03 µg/mL
